The test system of series [1] is Balb/C 3T3 fibroblast. In words: Proliferation assay with rhEGF-loaded nanoparticles (CCK-8). Format: cell-based. Conditions: 15 ng/ml rhEGF, after 48 hours and 72 hours, FIG. 1. The procedure: 24-well plate was used for the proliferation assay. 35000 Balb/C 3T3 fibroblast resuspended in 1 ml of completed culture medium (DMEM supplemented with 10% FCS) were seeded in each well. After 8 hours of incubation, the medium was replaced by 1 ml of 0.2% FCS supplemented DMEM and cells were incubated overnight. Then, medium was replaced by 1 ml of: (i) 0.2% FCS-supplemented DMEM, (ii) 15 ng/ml of free rhEGF in 0.2% FCS-supplemented DMEM, (iii) empty SLN in 0.2% FCS-supplemented DMEM, (iv) 15 ng/ml of rhEGF-loaded SLN (rhEGF-SLN) in 0.2% FCS-supplemented DMEM, (v) empty NLC in 0.2% FCS-supplemented DMEM and (vi) 15 ng/ml of rhEGF-loaded NLC (rhEGF-NLC) in 0.2% FCS-supplemented DMEM.
The cells were cultured under the same conditions for 24 hours, 48 hours and 72 hours. The experiments were performed in triplicate. After the different incubation intervals, 100 μl of CCK-8 (Sigma-Aldrich, Saint Louise, USA) was added to each well (Zhou, Y., Qian, M., Liang, Y., Liu, Y., Yang, X., Jiang, T., Wang, Y., 2011. Effects of Leukemia Inhibitory Factor on Proliferation and Odontoblastic Differentiation of Human Dental Pulp Cells. J. Endod. 37, 819-824). After 4 hours of incubation, absorbance was read at 450 nm and at 650 nm as the reference wavelength. The absorbance was directly proportional to the number of living cells in culture.

Series [2] has as its system db/db mice. In words: In vivo wound healing, wound closure (wound area). Conditions: 75 μg rhEGF intralesionally (free rhEGF twice a week; rhEGF-MS once).
The subject of series [3] is db/db mice. In words: Histological estimation of wound healing: inflammation score (Cotran scale 0-4). Type of series: in vivo. Conditions: 75 μg rhEGF intralesionally (free rhEGF twice a week; rhEGF-MS once).
For series [4], the system named is db/db mice. In words: Histological estimation of wound healing: re-epithelization score (Sinha criteria 0-4). Format: in vivo. The following applies: 75 μg rhEGF intralesionally (free rhEGF twice a week; rhEGF-MS once), scale 0-4.
Series [5] deals with Large White pigs. In words: In vivo wound healing in pigs, serial analysis of healed wounds (closure above 95%). The following applies: rhEGF-NLC 20 μg topically, free rhEGF 75 μg intralesionally, twice a week. From the text:
All the protocols and procedures used were previously approved by the Institutional Animal Care and Use Committee from the Jesús Usón Minimally Invasive Surgery Centre (JUMISC). Six female Large White pigs, with a mean weight of 26.82±2.90 kg at the beginning of the study, distributed in individual pens of 2.90 m×1.35 m were used. All the animals of the study were randomly distributed in acclimated rooms, where the following housing conditions were established: 12-hour light-dark cycle, temperature between 20 and 25° C., eight air changes per hour with HEPA-filtered ventilation and relative humidity between 50 and 70%. As pen environmental enrichment, hanging chains and chewing rubber toys were installed as chewable elements. After an acclimatization period, the animals were identified by ear tag codes to be included in the study. […]
Wound healing kinetic was determined by measuring the wound closure (percentage of initial wound area closed) on days 1, 15, 25, 36 and 43. The wound area was assessed, in a standardized manner, taken photographs perpendicularly to the wound surface, using the same illumination and placing a transparent plastic sterile ruler next to the wounds to introduce a metric reference in the pictures for further processing. The wound area was calculated using the image software ImageJ (see section 5.3). […]

A short description of series [6]: rhEGF plasma concentration (systemic absorption), ELISA. Type of series: in vivo, pigs. The following applies: 30 minutes after first dose; free rhEGF 75 μg intralesionally. The procedure: (§1) Treatment administration began 24 hours after wound induction (day 1 of the study) to allow primary homeostasis, platelet adhesion and aggregation, and activation of the coagulation cascade. The animals were randomly divided into three groups (n=2): (i) empty NLC, (ii) 20 μg rhEGF-NLC and (iii) 75 μg free rhEGF. Nanoparticles previously resuspended in 150 μl of vehicle (0.5% carboxymethylcellulose in 0.9% saline) were topically administered twice a week by spreading them over the wound bed. Free rhEGF, resuspended in 1 ml of vehicle, was intralesionally administered twice a week.
In addition, plasma samples from the rhEGF-NLC and free rhEGF treated animals were collected to assess rhEGF systemic absorption. rhEGF detection was performed by ELISA (human EGF ELISA development kit, PeproTech). Samples were drawn when the plasma rhEGF levels were expected to be higher. Thus, samples from the animals treated with rhEGF-NLC were collected on day 1 of the experiment (prior to the treatment administration), 4 hours and 24 hours after administration. Plasma samples from the animals treated with free rhEGF were obtained just after administration and 30 minutes after the first dose. […]

Series [7] has as its system Large White pigs. In words: Histological assessment in pigs: wound maturity and healing quality (Cotran criteria). Format: in vivo. The following applies: rhEGF-NLC 20 μg topically, free rhEGF 75 μg intralesionally. The procedure:
as §1
Complete skin thickness biopsies from the centre of the unhealed wound to the healthy margin (2 mm) were collected using a sterile scalpel. Collected samples were immediately fixed in 4% formalin, embedded in paraffin and excised in 5-μm thick layers. Samples were stained with haematoxilyn-eosin (HE) for morphological observations. Biopsies were collected on day 15 for wounds 1, 2 and 3 and on days 25 and 43 for all of the wounds. On day 36, wound images were taken but no biopsies were collected not to delay wound healing.
Wound healing was determined in terms of the re-epithelization grade by measuring the newly formed epithelia, and wound maturity and healing quality according to the Cotran et al. (2000) criteria.

These results are taken from patent US10206886B2, “Lipid nanoparticles for wound healing” (Praxis Biopharma Research Institute, priority 2013, dated 2019).

B1: free rhEGF: Non-encapsulated recombinant human epidermal growth factor; 75 μg of lyophilised rhEGF similar to commercialised Heberprot (protein, UniProt P01133 23-1207, looked up)
Pro-epidermal growth factor: PQHWSCPEGTLAGNGNSTCVGPAPFLIFSHGNSIFRIDTEGTNYEQLVVDAGVSVIMDFHYNEKRIYWVDLERQLLQRVFLNGSRQERVCNIEKNVSGMAINWINEEVIWSNQQEGIITVTDMKGNNSHILLSALKYPANVAVDPVERFIFWSSEVAGSLYRADLDGVGVKALLETSEKITAVSLDVLDKRLFWIQYNREGSNSLICSCDYDGGSVHISKHPTQHNLFAMSLFGDRIFYSTWKMKTIWIANKHTGKDMVRINLHSSFVPLGELKVVHPLAQPKAEDDTWEPEQKLCKLRKGNCSSTVCGQDLQSHLCMCAEGYALSRDRKYCEDVNECAFWNHGCTLGCKNTPGSYYCTCPVGFVLLPDGKRCHQLVSCPRNVSECSHDCVLTSEGPLCFCPEGSVLERDGKTCSGCSSPDNGGCSQLCVPLSPVSWECDCFPGYDLQLDEKSCAASGPQPFLLFANSQDIRHMHFDGTDYGTLLSQQMGMVYALDHDPVENKIYFAHTALKWIERANMDGSQRERLIEEGVDVPEGLAVDWIGRRFYWTDRGKSLIGRSDLNGKRSKIITKENISQPRGIAVHPMAKRLFWTDTGINPRIESSSLQGLGRLVIASSDLIWPSGITIDFLTDKLYWCDAKQSVIEMANLDGSKRRRLTQNDVGHPFAVAVFEDYVWFSDWAMPSVMRVNKRTGKDRVRLQGSMLKPSSLVVVHPLAKPGADPCLYQNGGCEHICKKRLGTAWCSCREGFMKASDGKTCLALDGHQLLAGGEVDLKNQVTPLDILSKTRVSEDNITESQHMLVAEIMVSDQDDCAPVGCSMYARCISEGEDATCQCLKGFAGDGKLCSDIDECEMGVPVCPPASSKCINTEGGYVCRCSEGYQGDGIHCLDIDECQLGEHSCGENASCTNTEGGYTCMCAGRLSEPGLICPDSTPPPHLREDDHHYSVRNSDSECPLSHDGYCLHDGVCMYIEALDKYACNCVVGYIGERCQYRDLKWWELRHAGHGQQQKVIVVAVCVVVLVMLLLLSLWGAHYYRTQKLLSKNPKNPYEESSRDVRSRRPADTEDGMSSCPQPWFVVIKEHQDLKNGGQPVAGEDGQAADGSMQPTSWRQEPQLCGMGTEQGCWIPVSSDKGSCPQVMERSFHMPSYGTQTLEGGVEKPHSLLSANPLWQQRALDPPHQMELTQ
modifications: Pro-epidermal growth factor
notes: Non-encapsulated recombinant human epidermal growth factor; 75 μg of lyophilised rhEGF similar to commercialised Heberprot
As to B1, in series [1], the “cell proliferation compared with control groups” value is “greater cell proliferation”. In series [2], the “Wound healing 4th day” value was 8.42 ± 3.96%, the “Wound healing 7th day” value is 19.94 ± 5.21%, the “Wound healing 11th day” value amounted to 44.80 ± 2.64% and the “Wound healing 14th day” value came out at 61.83 ± 2.99%. In series [3], the “Inflammation score Day 16” value is listed as 2.75 ± 0.95. Also, in series [3] (listed as Free rhEGF), the “Inflammation score Day 8” value is given as 1.75 ± 0.71. Also, the “Inflammation score Day 8” value in series [3] (listed as rhEGF) is recorded as 2.13±0.64. Also, in series [4], the “Re-epithelization score Day 8” value is 1.25±0.89 and the “Re-epithelization score Day 16” value is 2.71 ± 0.49. In addition, in series [4] (listed as Free rhEGF), the “Re-epithelization score Day 8” value is 1.25 ± 0.89. Moreover, the “percentage of healed wounds” value in series [5] (day 25) is reported as 40%. The wound closure state result in series [5] (day 36) is on record as “completely closed”. The molecule further came in with a rhEGF plasma concentrations in series [6] of 0.20 ± 0.01 ng/mL. Further, the “extension of inflammatory tissue (Grade 2)” value in series [7] (day 15, FIG. 10A) is reported as “mainly showed a diffuse acute inflammation”. The “wound maturity and healing quality (healing grade)” value in series [7] (day 25, FIG. 10B) is on record as “still showed chronic inflammation”.
